These results are taken from publication PMC6111841.

As a reminder, the stoichiometry N is a count of units in the complex or per binding partner.

“And” between values parts separate entries of the source, which are not always exact repeats. Equal entries are not always repeated.

Assay [1] deals with HelD (Bacillus subtilis) (UniProt O32215). The experiment in a line: SEC; Superdex 200 Increase 10/300 GL, Buffer A (20 mM HEPES pH 7.5, 150 mM NaCl), 500 uL purified protein, 0.5 mL/min, 4 °C. On the technique in general: Size exclusion chromatography separates by hydrodynamic size, large species first.
Assay [2] shares this target. As to the kind of experiment: AUC; sedimentation velocity, HelD 5 uM in Buffer A (20 mM HEPES pH 7.5, 150 mM NaCl), 40,000 rpm, 4 °C, c(s) model in SEDFIT.

HelD, sequence (O32215 whole entry): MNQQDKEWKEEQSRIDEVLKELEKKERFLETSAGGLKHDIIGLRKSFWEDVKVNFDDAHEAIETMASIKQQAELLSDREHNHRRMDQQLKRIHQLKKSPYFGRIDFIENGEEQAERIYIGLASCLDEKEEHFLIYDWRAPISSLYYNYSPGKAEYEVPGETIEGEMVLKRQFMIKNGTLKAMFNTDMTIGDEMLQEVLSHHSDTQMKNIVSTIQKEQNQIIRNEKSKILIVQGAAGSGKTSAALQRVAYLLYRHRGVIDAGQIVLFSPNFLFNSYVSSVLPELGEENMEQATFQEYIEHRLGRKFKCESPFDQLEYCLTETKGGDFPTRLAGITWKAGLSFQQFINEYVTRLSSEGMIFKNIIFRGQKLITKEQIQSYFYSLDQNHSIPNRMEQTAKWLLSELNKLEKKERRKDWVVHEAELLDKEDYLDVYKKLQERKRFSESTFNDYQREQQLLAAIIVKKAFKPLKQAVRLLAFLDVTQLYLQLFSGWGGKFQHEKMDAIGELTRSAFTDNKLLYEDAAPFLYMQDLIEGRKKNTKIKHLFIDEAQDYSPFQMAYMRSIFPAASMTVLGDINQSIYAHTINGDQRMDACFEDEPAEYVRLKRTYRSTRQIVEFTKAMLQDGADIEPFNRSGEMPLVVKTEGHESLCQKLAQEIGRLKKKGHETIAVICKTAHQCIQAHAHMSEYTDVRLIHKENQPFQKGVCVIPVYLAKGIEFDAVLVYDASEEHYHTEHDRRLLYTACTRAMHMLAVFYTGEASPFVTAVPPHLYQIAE

For the substance “HelD (from UniProt O32215 1-774) (natural protein)”, the stoichiometry N with HelD (Bacillus subtilis) [1] was 2 and 3. In the assay with HelD (Bacillus subtilis) [2], this substance came in with a population of higher order oligomers of 20%.
